{"source": "IntAct's records for PubMed 31515488", "parents": {"B1": {"name": "NIF3-like protein 1 (Homo sapiens), Q9GZT8 (parent)", "chain": "MLSSCVRPVPTTVRFVDSLICNSSRSFMDLKALLSSLNDFASLSFAESWDNVGLLVEPSPPHTVNTLFLTNDLTEEVMEEVLQKKADLILSYHPPIFRPMKRITWNTWKERLVIRALENRVGIYSPHTAYDAAPQGVNNWLAKGLGACTSRPIHPSKAPNYPTEGNHRVEFNVNYTQDLDKVMSAVKGIDGVSVTSFSARTGNEEQTRINLNCTQKALMQVVDFLSRNKQLYQKTEILSLEKPLLLHTGMGRLCTLDESVSLATMIDRIKRHLKLSHIRLALGVGRTLESQVKVVALCAGSGSSVLQGVEADLYLTGEMSHHDTLDAASQGINVILCEHSNTERGFLSDLRDMLDSHLENKINIILSETDRDPLQVV"}, "B2": {"name": "Protein FAM168A (Homo sapiens), Q92567 (parent)", "chain": "MNPVYSPVQPGAPYGNPKNMAYTGYPTAYPAAAPAYNPSLYPTNSPSYAPEFQFLHSAYATLLMKQAWPQNSSSCGTEGTFHLPVDTGTENRTYQASSAAFRYTAGTPYKVPPTQSNTAPPPYSPSPNPYQTAMYPIRSAYPQQNLYAQGAYYTQPVYAAQPHVIHHTTVVQPNSIPSAIYPAPVAAPRTNGVAMGMVAGTTMAMSAGTLLTTPQHTAIGAHPVSMPTYRAQGTPAYSYVPPHW", "partner": "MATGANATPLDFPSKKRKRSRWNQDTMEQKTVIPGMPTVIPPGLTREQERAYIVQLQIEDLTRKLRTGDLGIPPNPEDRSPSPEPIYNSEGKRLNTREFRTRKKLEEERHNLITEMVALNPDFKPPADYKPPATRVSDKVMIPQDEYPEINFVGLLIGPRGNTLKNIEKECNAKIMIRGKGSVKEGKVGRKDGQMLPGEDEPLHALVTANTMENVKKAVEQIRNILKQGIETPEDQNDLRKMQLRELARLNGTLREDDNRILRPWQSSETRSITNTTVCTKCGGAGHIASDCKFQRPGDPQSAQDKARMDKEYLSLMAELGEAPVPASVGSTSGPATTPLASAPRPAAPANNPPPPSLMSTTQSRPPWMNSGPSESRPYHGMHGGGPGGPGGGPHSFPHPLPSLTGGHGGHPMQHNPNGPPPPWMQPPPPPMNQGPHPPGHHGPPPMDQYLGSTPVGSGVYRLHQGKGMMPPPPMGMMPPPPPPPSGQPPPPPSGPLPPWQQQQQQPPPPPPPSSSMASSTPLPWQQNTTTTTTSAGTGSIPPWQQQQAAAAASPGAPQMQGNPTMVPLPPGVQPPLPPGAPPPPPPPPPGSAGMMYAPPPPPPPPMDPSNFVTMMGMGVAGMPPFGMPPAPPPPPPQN"}, "B3": {"name": "UDP-galactose translocator (Homo sapiens), P78381 (parent)", "chain": "MAAVGAGGSTAAPGPGAVSAGALEPGTASAAHRRLKYISLAVLVVQNASLILSIRYARTLPGDRFFATTAVVMAEVLKGLTCLLLLFAQKRGNVKHLVLFLHEAVLVQYVDTLKLAVPSLIYTLQNNLQYVAISNLPAATFQVTYQLKILTTALFSVLMLNRSLSRLQWASLLLLFTGVAIVQAQQAGGGGPRPLDQNPGAGLAAVVASCLSSGFAGVYFEKILKGSSGSVWLRNLQLGLFGTALGLVGLWWAEGTAVATRGFFFGYTPAVWGVVLNQAFGGLLVAVVVKYADNILKGFATSLSIVLSTVASIRLFGFHVDPLFALGAGLVIGAVYLYSLPRGAAKAIASASASASGPCVHQQPPGQPPPPQLSSHRGDLITEPFLPKLLTKVKGS"}, "B4": {"name": "Four and a half LIM domains protein 2 (Homo sapiens), Q14192 (parent)", "chain": "MTERFDCHHCNESLFGKKYILREESPYCVVCFETLFANTCEECGKPIGCDCKDLSYKDRHWHEACFHCSQCRNSLVDKPFAAKEDQLLCTDCYSNEYSSKCQECKKTIMPGTRKMEYKGSSWHETCFICHRCQQPIGTKSFIPKDNQNFCVPCYEKQHAMQCVQCKKPITTGGVTYREQPWHKECFVCTACRKQLSGQRFTARDDFAYCLNCFCDLYAKKCAGCTNPISGLGGTKYISFEERQWHNDCFNCKKCSLSLVGRGFLTERDDILCPDCGKDI", "partner": "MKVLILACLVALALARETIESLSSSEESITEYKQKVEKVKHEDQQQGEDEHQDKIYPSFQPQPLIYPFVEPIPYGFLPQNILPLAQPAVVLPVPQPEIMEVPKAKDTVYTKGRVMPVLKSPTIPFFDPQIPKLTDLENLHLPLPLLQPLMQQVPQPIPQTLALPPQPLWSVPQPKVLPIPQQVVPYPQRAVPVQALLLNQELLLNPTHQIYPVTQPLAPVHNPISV"}, "B5": {"name": "Protein BANP (Homo sapiens), Q8N9N5 (parent)", "chain": "MMSEHDLADVVQIAVEDLSPDHPVVLENHVVTDEDEPALKRQRLEINCQDPSIKTICLRLDSIEAKLQALEATCKSLEEKLDLVTNKQHSPIQVPMVAGSPLGATQTCNKVRCVVPQTTVILNNDRQNAIVAKMEDPLSNRAPDSLENVISNAVPGRRQNTIVVKVPGQEDSHHEDGESGSEASDSVSSCGQAGSQSIGSNVTLITLNSEEDYPNGTWLGDENNPEMRVRCAIIPSDMLHISTNCRTAEKMALTLLDYLFHREVQAVSNLSGQGKHGKKQLDPLTIYGIRCHLFYKFGITESDWYRIKQSIDSKCRTAWRRKQRGQSLAVKSFSRRTPNSSSYCPSEPMMSTPPPASELPQPQPQPQALHYALANAQQVQIHQIGEDGQVQVGHLHIAQVPQGEQVQITQDSEGNLQIHHVGQDGQLLEATRIPCLLAPSVFKASSGQVLQGAQLIAVASSDPAAAGVDGSPLQGSDIQVQYVQLAPVSDHTAGAQTAEALQPTLQPEMQLEHGAIQIQ", "partner": "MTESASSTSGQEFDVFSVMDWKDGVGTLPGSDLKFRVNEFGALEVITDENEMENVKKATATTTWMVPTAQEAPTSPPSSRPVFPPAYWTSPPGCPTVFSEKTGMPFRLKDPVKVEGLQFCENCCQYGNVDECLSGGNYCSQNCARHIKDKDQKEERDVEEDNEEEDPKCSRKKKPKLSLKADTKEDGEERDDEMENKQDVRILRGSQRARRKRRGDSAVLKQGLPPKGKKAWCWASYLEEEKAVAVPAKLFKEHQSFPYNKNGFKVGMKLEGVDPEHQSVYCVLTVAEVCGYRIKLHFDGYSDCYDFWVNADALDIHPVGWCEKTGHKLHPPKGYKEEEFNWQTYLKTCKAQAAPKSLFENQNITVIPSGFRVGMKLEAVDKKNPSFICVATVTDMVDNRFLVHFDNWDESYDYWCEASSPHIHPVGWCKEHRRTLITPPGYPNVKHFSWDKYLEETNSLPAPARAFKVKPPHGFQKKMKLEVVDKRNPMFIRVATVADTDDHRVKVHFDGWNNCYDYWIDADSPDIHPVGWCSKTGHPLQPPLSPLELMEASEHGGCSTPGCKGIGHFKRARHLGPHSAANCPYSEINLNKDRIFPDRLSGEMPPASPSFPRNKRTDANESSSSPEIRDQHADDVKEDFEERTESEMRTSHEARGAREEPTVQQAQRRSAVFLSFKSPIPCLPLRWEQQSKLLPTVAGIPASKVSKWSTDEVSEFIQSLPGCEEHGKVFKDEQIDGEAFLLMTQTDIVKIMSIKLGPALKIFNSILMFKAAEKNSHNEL"}, "B6": {"name": "Signal transducing adapter molecule 1 (Homo sapiens), Q92783 (parent)", "chain": "MPLFATNPFDQDVEKATSEMNTAEDWGLILDICDKVGQSRTGPKDCLRSIMRRVNHKDPHVAMQALTLLGACVSNCGKIFHLEVCSRDFASEVSNVLNKGHPKVCEKLKALMVEWTDEFKNDPQLSLISAMIKNLKEQGVTFPAIGSQAAEQAKASPALVAKDPGTVANKKEEEDLAKAIELSLKEQRQQSTTLSTLYPSTSSLLTNHQHEGRKVRAIYDFEAAEDNELTFKAGEIITVLDDSDPNWWKGETHQGIGLFPSNFVTADLTAEPEMIKTEKKTVQFSDDVQVETIEPEPEPAFIDEDKMDQLLQMLQSTDPSDDQPDLPELLHLEAMCHQMGPLIDEKLEDIDRKHSELSELNVKVMEALSLYTKLMNEDPMYSMYAKLQNQPYYMQSSGVSGSQVYAGPPPSGAYLVAGNAQMSHLQSYSLPPEQLSSLSQAVVPPSANPALPSQQTQAAYPNTMVSSVQGNTYPSQAPVYSPPPAATAAAATADVTLYQNAGPNMPQVPNYNLTSSTLPQPGGSQQPPQPQQPYSQKALL"}}, "data": [{"variants_of": "B1", "details": "with zn446_human ZNF446, Q9NWS9", "values": [{"variant": "T324I", "effect of a mutation on the interaction": "with no effect"}]}, {"variants_of": "B1", "details": "with rgs20_human RGS20, O76081", "values": [{"variant": "T324I", "effect of a mutation on the interaction": "with no effect"}]}, {"variants_of": "B2", "details": "with sf01_human SF1, Q15637", "values": [{"variant": "P122R", "effect of a mutation on the interaction": "disrupting interaction strength"}]}, {"variants_of": "B3", "details": "with pls1_human PLSCR1, O15162", "values": [{"variant": "A57T", "effect of a mutation on the interaction": "with no effect"}]}, {"variants_of": "B4", "details": "with casb_human CSN2, P05814", "values": [{"variant": "A37S", "effect of a mutation on the interaction": "with no effect"}, {"variant": "N95K", "effect of a mutation on the interaction": "with no effect"}]}, {"variants_of": "B5", "details": "with lmbl3_human L3MBTL3, Q96JM7", "values": [{"variant": "P348S", "effect of a mutation on the interaction": "with no effect"}]}, {"variants_of": "B6", "details": "with hgs_human HGS", "values": [{"variant": "I343T", "effect of a mutation on the interaction": "with no effect"}, {"variant": "I350T", "effect of a mutation on the interaction": "with no effect"}, {"variant": "V61I", "effect of a mutation on the interaction": "with no effect"}, {"variant": "A367T", "effect of a mutation on the interaction": "with no effect"}]}]}
